The subject of the series is Saccharomyces cerevisiae. Put plainly: transcriptional activation domain activity (GFP:mCherry ratio, weighted mean of sorted bins, harmonized to initial dataset scale) (arbitrary fluorescence ratio units); higher = stronger transcriptional activation. The note with it: beta-estradiol 1 µM; induction time 4 h. An outline of the steps: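 Sorting into 8 bins by GFP:mCherry ratio followed a 4-hour hold at 30 °C after cultures were diluted 1:5 into SC with 1 uM beta-estradiol. The yeast diploids carried a GFP reporter and had barcoded protein tiles, fused to an estradiol-inducible synthetic transcription factor, integrated at URA3. Barcodes were then sequenced, and tiles with under 50 reads were removed. Activation activity is the read-weighted mean of bin median fluorescence, averaged across barcodes and linearly mapped onto the initial dataset scale.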
For the sequence “SQEESIDNENQKVKEEEIEISVNNIKTEVEKEELKKDNKKGKKVVNKKEIKEE”, the “transcriptional activation domain activity” value was 39900.

In the case of “MLETRFINNLVPLYRFLLPFYIFFFFSIYCYYLTIDPHYFSLSSMVFFFSCCT”, the “transcriptional activation domain activity” value stood at 57600.

With “MADFVSIWLVVVVDYHFYIYIVFAREQLFRHFCLVSSALAVGLSLFWLMLCFG”, the “transcriptional activation domain activity” value was 68200.

For “KLWAKRRAIYSNVMGFLGGVAWAMLTARVCQLYPNACAASIVNRFFRIMYQWN”, the “transcriptional activation domain activity” value came to 49800.

For “LKIYLLNPLHMTRFADLLYQGAIMNRVIQPYESHLQYLLQWMCDYNLYGCGYI”, the “transcriptional activation domain activity” value was 75800.

In the case of “MTTNRDKAFFFFFNCERPIFNFFFCPFFLFFYIPFYFPYPYFFSFSYFSFLYL”, the “transcriptional activation domain activity” value was 78200.

In the case of “MPIPLRLPFPFCFWVRMGLLDVYYHTVGGLYGYVLGGGVVICWRWWCFSFFCL”, the “transcriptional activation domain activity” value was 55500.

As for “IMGLVFRRARRRTVSLVTKYLITETEVVITYIPAVAVAIFPQLNWIYWMIFYP”, the “transcriptional activation domain activity” value came out at 65800.

For the sequence “MMHLSIRDEQKVSLCLTIYLFIFFFFFLILFLWLEGVYLFFLLMTFFLRPYSS”, the “transcriptional activation domain activity” value is 43800.

Turning to “EREILWRAYLRLIKHVNSIFKIRIAYEWTEDYVIKYLWSAAGYCLISIPILFT”, the “transcriptional activation domain activity” value is 77100.

As for “AIEEIRQDNESRQRENRVVYDRTDKDNERNESLNHQQGIRLVIIDSIHQPVTT”, the “transcriptional activation domain activity” value was found to be 45700.

For “ALHLVWSGSTIYVKPLPACLVDFDFFMRFISPFPHIYEDACGFLLTYARLIVH”, the “transcriptional activation domain activity” value came to 89800.

As to “HEDQKLREDQEARLRAVEEFEAVQMGLSVKTGASARVIGRQGGRIVAEEEQHV”, the “transcriptional activation domain activity” value was 26100.

“LPTINTAIPTAAVPQQNIAPPFLNTNSSATDSNPNTNLEDSLFFDHDLLSSSI”: the “transcriptional activation domain activity” value was 49800.

For the sequence “IAHRYLVGYVYVRTHSQTGGLVYIWLLKRLGSLLSLQPILLGLIFLSRHLWIE”, the “transcriptional activation domain activity” value was 55000.

For the sequence “VLVVVVALPVVAVMVIMVVVVVVVVVVAIIGGGGWWMWLGLWLRLLIEMDVGA”, the “transcriptional activation domain activity” value is 32900.

For the sequence “EWAPDVLRKSAKTFTQEGPMVKLQIVTLAAKLLVLSPVDPRLTLLCRYVFSLA”, the “transcriptional activation domain activity” value was 46000.

On to “EGTGYITVSSGTRYVRLVGARGEEGEGVFGGGRRRRVEVVDFSRARVRAAQIG”, for which the “transcriptional activation domain activity” value is 49000.

Regarding “CFKHIGLYWAERGITLGRLEQLVGCHSLFSALERQASLRAWSILGMLLTIVWF”, the “transcriptional activation domain activity” value was found to be 61400.

Regarding “PYQSSVDVLPRPLPVLRWTWVIVGISCFYFWCVSIPAPFLLFRICFPHFNLLT”, the “transcriptional activation domain activity” value turned out to be 50500.

For “MTGTTLLPPPFISNDVTNSADSTNIKPSPSSSVDNLNDYLTDINSLAWGVNSL”, the “transcriptional activation domain activity” value was determined as 67600.

For “LLISDSQLGSYLLIGFVLENFICLFGLLVHSYLSLTRMDLGSFFFFAQITNRM”, the “transcriptional activation domain activity” value was found to be 40700.

With “LFYLLLLYYYYYCTILYILLHIHYIYIIYLFFLFVYSIYLFFFYILLFIIYYS”, the “transcriptional activation domain activity” value is 52300.

In the case of “MDSGTLVGGANADGLVEIPLPGHDSIHLHVTHPRVMFLLTFLVSAACKRDPVS”, the “transcriptional activation domain activity” value was 27100.

Turning to “GWNTHRAQTYTQLAKHLQSHGFHCKQYLGWLCHNIVAIEVYWMMIHLKRILPL”, the “transcriptional activation domain activity” value is 56300.

Turning to “QNLFGYLERSLNRSTKLRATGMLKEGMVRIFIQKIEGSPFEVTMQFARKFFTA”, the “transcriptional activation domain activity” value was 35900.

On to “SIYCRLIQKSLFLMMVPIVQMPPLLLLLTCYFLRIFLSFFTRMYFVCFVLIFL”, for which the “transcriptional activation domain activity” value was determined as 62400.

Consider “MGLLGGRRAADYYLFLFFLFFFYLSLFSPRFSSFLHFPSYIELVGFFFFLLRL”, for which the “transcriptional activation domain activity” value came out at 36700.

“DGNNSKPLSPGWTDQTAYNAFGITTGMFNTTTMDDVYNYLFDDEDTPPNPKKE”: the “transcriptional activation domain activity” value came out at 61500.

As to “ADCAVIGVVSEEEATELPRAYVVHAKGIPPSEHEAFGVSVQEWIKSRVARHKQ”, the “transcriptional activation domain activity” value turned out to be 53600.

Values taken from the supplement of paper PMC12636428.
